According to patent US20250376535A1 (BEIJING STARMAB BIOMED TECHNOLOGY, published 2025):

T1: recombinant human OX40-Fc (human, UniProt P43489 29-214)
T1 construct: also called rh-OX40-Fc; human OX40 hFC (R & D systems)
T1 sequence: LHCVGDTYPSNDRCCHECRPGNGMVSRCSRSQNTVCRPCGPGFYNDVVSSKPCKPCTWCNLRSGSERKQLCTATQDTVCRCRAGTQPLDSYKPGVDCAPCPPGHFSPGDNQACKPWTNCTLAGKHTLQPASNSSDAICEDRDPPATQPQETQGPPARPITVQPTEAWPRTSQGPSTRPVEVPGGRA


Key:
[1] = molecular target: T2, EGFR (recombinant human, BLI antigen) (human, UniProt P00533 25-645); assay: BLI (Octet) as in Example 1
T2 construct: also called rh-EGFR; human EGFR

[2] = molecular target: T1, recombinant human OX40-Fc; assay: ELISA, OX40-Fc coated, VHH at 8 nM
Protocol: (§1) After four times washing with PBST, the plate was incubated with detecting antibody anti-his-HRP (1:4000 dilution) 100 μl per well for one hour with shaking at 60 rpm. The plate was developed with 100 μL of TMB per well in the dark and then stopped by 50 μL of stop solution per well. […] Data was analyzed using GraphPad Prisma 9.1.

[3] = molecular target: T1, recombinant human OX40-Fc; assay: ELISA, OX40-Fc coated, VHH at 40 nM
Protocol: as §1

[4] = molecular target: T1, recombinant human OX40-Fc; assay: ELISA, OX40-Fc coated, VHH at 1.6 nM
Protocol: as §1

[5] = molecular target: T1, recombinant human OX40-Fc; assay: ELISA, OX40-Fc coated, VHH at 200 nM
Protocol: as §1

[6] = molecular target: T1, recombinant human OX40-Fc; assay: ELISA, OX40-Fc coated, VHH at 0.32 nM
Protocol: as §1

[7] = molecular target: T1, recombinant human OX40-Fc; assay: ELISA, OX40-Fc coated, VHH at 1000 nM
Protocol: as §1

[8] = molecular target: T1, recombinant human OX40-Fc; assay: ELISA, OX40-Fc coated, VHH at 0.064 nM
Protocol: as §1

[9] = molecular target: T1, recombinant human OX40-Fc; assay: ELISA, OX40-Fc coated, VHH at 0.0128 nM
Protocol: as §1

[10] = molecular target: T1, recombinant human OX40-Fc; assay: BLI, VHH-His on anti-His tips, OX40 hFc in solution;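 also: kinetics recorded at 30 °C in PBS pH 7.2, with 200 s of association followed by dissociation monitored in PBS lacking the OX40 protein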
Protocol: Bio-Layer Interferometry (BLI) kinetic binding analysis. […] Affinity measurements were performed with Gator equipped with Anti-Penta-His capture (HIS1K) biosensor tips. The assay was performed at 30° C. in 1×PBS buffer (Gibco®, PBS pH7.2). Samples were agitated at 1000 rpm. Prior to analysis, sensors were humidified for 15 min. Purified anti-OX40 VHH was tested for its binding capacity with HIS1K sensor tips. Tips were loaded using 20 μg/ml of anti-OX40 VHH. Loading proceeded for 300 s resulting in capture levels of between 1.8 and 2 nm. […] Association was initiated and monitored for 200 sec, after which tips were transferred to 1×PBS buffer without Factor protein (Gibco, PBS pH 7.2), in order to monitor dissociation. Sensor data was collected throughout the experiments, processed, and analyzed using the Gator data analysis software.

[11] = molecular target: T3, Human CD40 antigen (recombinant, BLI) (human, UniProt P25942 21-193); assay: BLI, VHH-His on anti-His tips, human CD40 in solution;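 also: kinetics measured at 30 °C in PBS pH 7.2, association tracked for 200 s, then dissociation followed in PBS lacking CD40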
T3 construct: also called rh-CD40
T3 sequence (P25942 21-193 limits assumed): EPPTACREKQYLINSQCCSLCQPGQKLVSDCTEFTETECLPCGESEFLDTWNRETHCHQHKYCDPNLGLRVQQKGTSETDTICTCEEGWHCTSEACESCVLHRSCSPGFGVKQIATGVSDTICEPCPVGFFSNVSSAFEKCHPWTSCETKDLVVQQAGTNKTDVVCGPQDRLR
Protocol: Bio-Layer Interferometry (BLI) kinetic binding analysis. […] Affinity measurements were performed with Gator equipped with Anti-Penta-His capture (HIS1K) biosensor tips. The assay was performed at 30° C. in 1×PBS buffer (Gibco®, PBS pH7.2). Samples were agitated at 1000 rpm. Prior to analysis, sensors were humidified for 15 min. […] Sensor data was collected throughout the experiments, processed, and analyzed using the Gator data analysis software.
Briefly, purified anti-CD40 VHH was tested for its binding capacity with HIS1K sensor tips. Tips were loaded using 20 μg/ml of anti-CD40 VHH. Loading proceeded for 300 sec resulting in capture levels of between 1.8 and 2 nm. […] Association was initiated and monitored for 200 sec, after which tips were transferred to 1×PBS buffer without CD40 protein in order to monitor dissociation.

Binder	Kd [1]	koff [1]	kon [1]	OD450 [2]	OD450 [3]	OD450 [4]	OD450 [5]	OD450 [6]	OD450 [7]	OD450 [8]	OD450 [9]	Kd [10]	koff [10]	kon [10]	Kd [11]	koff [11]	kon [11]
pgEG1 (VHH, not shown: small tags and cut ends) VHH: QVQLVESGGGLVQPGGSLRLSCAASGIIFEAEAMGWVRQAPGKQRESVAFIGSGGNTNVGWSVKGRFTISRDNAKNTLYLQMNSLRPEDTAVYYCNTHPLRSWGQGTQVTVS	15.6 nM	0.00243 s⁻¹	156000 M⁻¹ s⁻¹	–	–	–	–	–	–	–	–	–	–	–	–	–	–
pgXX88-16 (VHH, not shown: small tags and cut ends) VHH: QVQLVESGGGLVQAGESLNLSCSASGSIRNNAVAWFRQGPGNQRLRVAAITNTGTTDYADSVQGRFSIARDNAENTVTLQMNSLKPEDTAIYYCKIYTLPVPISSHDDTWGQGTQVTVSS	–	–	–	1.52	1.48	1.4	1.61	0.992	1.61	0.447	0.169	–	–	–	–	–	–
pgEG12 (VHH, not shown: small tags and cut ends) VHH: QVQLVESGGGLVQAGGSLSLSCTASRNIFSINVMSWYRQAPGKQREFVASITREDFPYYTDSVKGRFTVTRDIANNKVHLQMNSLKLEDTAVYYCNAYYRSDNYWGQGTQVTVSS	12.5 nM	0.00251 s⁻¹	201000 M⁻¹ s⁻¹	–	–	–	–	–	–	–	–	–	–	–	–	–	–
pgDD40-HZ-58 (VHH, not shown: small tags and cut ends) VHH: QVQLVESGGGLVQPGESLTLSCVTSGFVFSNHWMYWDRQAPGKGLEWVADINLGGEMTYYSNSVKGRFTISRDNAKNTVSLRMDNLKVEDTAVYFCAANQQTPPYGLGSREYDYDYWGQGTQVTVSS	–	–	–	–	–	–	–	–	–	–	–	–	–	–	0.0406 nM	3.32e-05 s⁻¹	818000 M⁻¹ s⁻¹
pgXX88-27 (VHH, not shown: small tags and cut ends) VHH: EVQLVESGGGLVQPGGSVTLSCATSKDTFSRYHMGWFRQAAGKEREFVAAIANTGTTTDYADFVKGRFTISRDSAKNTVYLQMDSLKVEDTAMYYCVVGSQFMSYDYWGQGTQVTVSS	–	–	–	1.34	1.35	1.02	1.3	0.334	1.39	0.115	0.155	–	–	–	–	–	–
pgXX88-19 (VHH, not shown: small tags and cut ends) VHH: EVQLVESGGGLVQAGGSLRLSCVATGRTRSSTYIMAWFRQAPGKERDFVAAISFIGGSPVYTDSVKGRFTISRVIAENTVHLQMNDLTPEDTALYYCAATDSGPLGPSGPSKYEYWGQGTQVTVSS	–	–	–	1.54	1.61	1.38	1.62	0.717	1.69	0.282	0.126	–	–	–	–	–	–
pgXX88-5 (VHH, not shown: small tags and cut ends) VHH: QVQLVESGGGLVQAGGSLRLSCAASGGTFSTYAMGWFRQAPGKEPQFVARITWSGYTLYTEPVQGRFAISRDNAKNTVYLQMNSLKPEDTAEYFCAADSSEFRDIPNRDSRANYRYWGQGTQVTVSS	–	–	–	0.103	0.242	0.065	0.543	0.058	1.09	0.057	0.057	–	–	–	–	–	–
pgEG6 (VHH, not shown: small tags and cut ends) VHH: QVQLVESGGGLVQPGGSLRLSCVASGIIFEAEAMGWYRQAPGKQRESVAFIGSGGNTNVGWSVKGRFTISRDNAKNTVYLQMNSLKPEDTAVYYCNTHPLRSWGQGTQVTVSS	27.9 nM	0.0136 s⁻¹	489000 M⁻¹ s⁻¹	–	–	–	–	–	–	–	–	–	–	–	–	–	–
pgXX88-2 (VHH, not shown: small tags and cut ends) VHH: EVQLVESGGGLVQPGGSLRLSCAASGFAFGDIPMMWVRQAPGKGREWVSSISADSATQSYADSVQDRFTISRDNAKNTLYLEMHILKPEDTAVYYCATTDRPPPGQGTQVTVSS	–	–	–	1.63	1.63	1.46	1.66	0.719	1.67	0.183	0.077	0.485 nM	0.00023 s⁻¹	474000 M⁻¹ s⁻¹	–	–	–

More lines, now with the values ahead:

Kd [1]	koff [1]	kon [1]	OD450 [2]	OD450 [3]	OD450 [4]	OD450 [5]	OD450 [6]	OD450 [7]	OD450 [8]	OD450 [9]	Kd [10]	koff [10]	kon [10]	Kd [11]	koff [11]	kon [11]	Binder
–	–	–	0.31	0.324	0.29	0.296	0.175	0.34	0.085	0.057	< 0.001 nM	1e-06 s⁻¹	494000 M⁻¹ s⁻¹	–	–	–	pgXX88-84 (VHH, not shown: small tags and cut ends) VHH: EVQLVESGGRLVQAGDSLKLSCTASGRTFSDYVMGWFRQVPGEGRLMVAVITPAGDTTEYADAVKGRFSISKDSAKRTVNLQMNNLKVDDTAVYYCAAGPSWIGMQFGTAEYWGQGTQVTVSS
–	–	–	0.183	0.252	0.147	0.243	0.072	0.504	0.063	0.05	0.0526 nM	2.42e-05 s⁻¹	460000 M⁻¹ s⁻¹	–	–	–	pgXX88-83 (VHH, not shown: small tags and cut ends) VHH: EVQLVESGGGLVQTGDSLRLSCAALGGTPSTYAIGWFRQAAGKELQFVARITWNGDTWYADALPGRVAISRDNAKKTVYLQMNNLKPEDTAEYICAADVSEFRDIPNRDSRANYRYWGQGTQVTVSS
–	–	–	0.772	0.75	0.743	0.666	0.617	0.772	0.262	0.06	< 0.001 nM	1e-06 s⁻¹	549000 M⁻¹ s⁻¹	–	–	–	pgXX88-81 (VHH, not shown: small tags and cut ends) VHH: EVQLVESGGGLAQPGSSLRLSCTASGTVFSILSATWFRQAPGKAHEARELVAFISSDGVSMHADSVKGRFTISRDNAKSTVYLQMDNLQPEDTAAYYCKLSNSMMGMEYWGRGTQVTVSS
–	–	–	0.668	0.718	0.641	0.61	0.596	0.713	0.284	0.057	< 0.001 nM	1e-06 s⁻¹	464000 M⁻¹ s⁻¹	–	–	–	pgXX88-60 (VHH, not shown: small tags and cut ends) VHH: EVQLVESGGGLAQPGGSLRLSCAASGFTFSNYAMGWYRQAPGKEREFVAAIDWSTNALLYGDSVKGRFTISRDNAKNTVFLQMSGLKPEDTALYYCAADRAYHTVVLGPPEGMDYWGKGTQVTVSS
